Laboratory results taken from paper PMC6053526, “Arabidopsis WRKY50 and TGA Transcription Factors Synergistically Activate Expression of PR1” (Frontiers in Plant Science, 2018).

Target: AtWRKY50 full length fused to a half of yellow fluorescent protein (BiFC) (Arabidopsis, UniProt Q8VWQ5 1-173)
Experiment: cell-based or functional assay

AtWRKY50 full length fused to a half of yellow fluorescent protein (BiFC), sequence (Q8VWQ5 whole entry, the tested form may be a part): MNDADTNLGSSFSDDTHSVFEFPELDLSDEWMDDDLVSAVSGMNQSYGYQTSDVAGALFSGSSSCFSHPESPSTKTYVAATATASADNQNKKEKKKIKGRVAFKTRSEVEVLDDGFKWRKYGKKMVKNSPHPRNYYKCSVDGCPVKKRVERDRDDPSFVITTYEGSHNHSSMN

B1: TGA2 full length fused to a half of yellow fluorescent protein (BiFC) (natural protein, Arabidopsis, UniProt P43273 1-330, looked up)
chain: MADTSPRTDVSTDDDTDHPDLGSEGALVNTAASDSSDRSKGKMDQKTLRRLAQNREAARKSRLRKKAYVQQLENSRLKLTQLEQELQRARQQGVFISGTGDQAHSTGGNGALAFDAEHSRWLEEKNKQMNELRSALNAHAGDSELRIIVDGVMAHYEELFRIKSNAAKNDVFHLLSGMWKTPAERCFLWLGGFRSSELLKLLANQLEPMTERQLMGINNLQQTSQQAEDALSQGMESLQQSLADTLSSGTLGSSSSGNVASYMGQMAMAMGKLGTLEGFIRQADNLRLQTLQQMIRVLTTRQSARALLAIHDYFSRLRALSSLWLARPRE
PR1::GUS reporter expression in Arabidopsis protoplasts co-transfected with 35S::AtWRKY50 and 35S::TGA2 (AtWRKY50 alone approximately 7-fold, TGA alone 2-fold): ≤ 14 fold

B2: TGA5 full length fused to a half of yellow fluorescent protein (BiFC) (natural protein, Arabidopsis, UniProt Q39163 1-330, looked up)
chain: MGDTSPRTSVSTDGDTDHNNLMFDEGHLGIGASDSSDRSKSKMDQKTLRRLAQNREAARKSRLRKKAYVQQLENSRLKLTQLEQELQRARQQGVFISSSGDQAHSTAGDGAMAFDVEYRRWQEDKNRQMKELSSAIDSHATDSELRIIVDGVIAHYEELYRIKGNAAKSDVFHLLSGMWKTPAERCFLWLGGFRSSELLKLIASQLEPLTEQQSLDINNLQQSSQQAEDALSQGMDNLQQSLADTLSSGTLGSSSSGNVASYMGQMAMAMGKLGTLEGFIRQADNLRLQTYQQMVRLLTTRQSARALLAVHNYTLRLRALSSLWLARPRE
PR1::GUS reporter expression in Arabidopsis protoplasts co-transfected with 35S::AtWRKY50 and 35S::TGA5 (AtWRKY50 alone approximately 7-fold, TGA alone 2-fold): ≤ 14 fold
